Assays:
[1] = molecular target: T1, human Keap1 Kelch domain (residues 322-624) (human, UniProt Q14145 322-624); assay: native MS
full length human Keap1 = full length human Keap1 (human, UniProt Q14145 1-624); assay: […]
[…] = molecular target: the molecule itself; assay: […]
[2] = molecular target: T1, human Keap1 Kelch domain (residues …); assay: ITC

T1 sequence (Q14145 322-624): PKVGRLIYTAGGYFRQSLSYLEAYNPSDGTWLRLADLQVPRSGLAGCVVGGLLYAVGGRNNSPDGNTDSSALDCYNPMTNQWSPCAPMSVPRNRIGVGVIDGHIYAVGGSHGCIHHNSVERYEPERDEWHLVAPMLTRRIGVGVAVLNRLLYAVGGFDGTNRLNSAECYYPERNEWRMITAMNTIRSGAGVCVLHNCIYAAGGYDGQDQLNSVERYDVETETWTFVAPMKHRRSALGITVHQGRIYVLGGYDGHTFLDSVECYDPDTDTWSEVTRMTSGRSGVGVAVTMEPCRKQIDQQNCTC
Sequence of full length human Keap1 (Q14145 whole entry): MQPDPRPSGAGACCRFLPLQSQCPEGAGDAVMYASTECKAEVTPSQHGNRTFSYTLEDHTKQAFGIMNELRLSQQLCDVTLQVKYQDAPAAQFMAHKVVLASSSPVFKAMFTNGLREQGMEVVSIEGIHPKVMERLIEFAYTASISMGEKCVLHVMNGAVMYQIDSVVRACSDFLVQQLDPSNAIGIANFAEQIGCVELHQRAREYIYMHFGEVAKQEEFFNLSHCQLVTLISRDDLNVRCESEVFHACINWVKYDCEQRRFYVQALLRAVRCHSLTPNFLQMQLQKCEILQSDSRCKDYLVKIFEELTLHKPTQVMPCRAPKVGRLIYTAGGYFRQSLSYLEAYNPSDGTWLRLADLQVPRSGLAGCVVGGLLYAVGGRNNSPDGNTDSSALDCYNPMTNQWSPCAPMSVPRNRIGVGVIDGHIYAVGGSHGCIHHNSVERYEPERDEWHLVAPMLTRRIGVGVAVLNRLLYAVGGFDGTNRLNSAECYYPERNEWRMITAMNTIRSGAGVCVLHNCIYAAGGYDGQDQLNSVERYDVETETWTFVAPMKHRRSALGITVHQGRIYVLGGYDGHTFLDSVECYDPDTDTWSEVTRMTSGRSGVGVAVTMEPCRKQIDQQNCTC

B1: MBP-tagged Marburg virus viral protein 24, wild type, full length (natural protein)
chain: MAELSTRYNLPANVTENSINLDLNSTARWIKEPSVGGWTVKWGNFVFHIPNTGMTLLHHLKSNFVVPEWQQTRNLFSHLFKNPKSTIIEPFLALRILLGVALKDQELQQSLIPGFRSIVHMLSEWLLLEVTSAIHISPNLLGIYLTSDMFKILMAGVKNFFNKMFTLHVVNDHGKPSSIEIKLTGQQIIITRVNMGFLVEVRRIDIEPCCGETVLSESVVFGLVAEAVLREHSQMEKGQPLNLTQYMNSKIAI
stoichiometry N [1]: 1 | stoichiometry N (full length human Keap1): 1 mVP24 per Keap1 (2:2) | stoichiometry N ([…]): 2

B2: MBP-tagged mVP24 N-terminal truncation (residues 22-253) (domain or fragment)
chain: DLNSTARWIKEPSVGGWTVKWGNFVFHIPNTGMTLLHHLKSNFVVPEWQQTRNLFSHLFKNPKSTIIEPFLALRILLGVALKDQELQQSLIPGFRSIVHMLSEWLLLEVTSAIHISPNLLGIYLTSDMFKILMAGVKNFFNKMFTLHVVNDHGKPSSIEIKLTGQQIIITRVNMGFLVEVRRIDIEPCCGETVLSESVVFGLVAEAVLREHSQMEKGQPLNLTQYMNSKIAI
Kd [2]: 77 ± 4 nM

— PMC5010500 (Journal of molecular biology, 2016)
